Laboratory results reported in doi:10.1101/2025.11.19.689067 (bioRxiv, 2025).

B1: EFNB1 RBD-Fc fusion protein (Fc fusion)
chain: LAKNLEPVSWSSLNPKFLSGKGLVIYPKIGDKLDIICPRAEAGRPYEYYKLYLVRPEQAAACSTVLDPNVLVTCNRPEQEIRFTIKFQEFSPNYMGLEFKKHHDYYITSTSNGSLEGLENREGGVCRTRTMKIIMKV

Key:
Assay in all cases: bead-based binding assay (Luminex)
[1] = target: DENV2 NS1 β-ladder-Halotag (residues 178-352) (dengue virus serotype 2)
[2] = target: DENV2 NS1 wing-Halotag (residues 30-174) (dengue virus serotype 2)
[3] = target: T1, DENV2 NS1 (recombinant, biotinylated, on Luminex beads) (dengue virus serotype 2, UniProt P29990 776-1127); conditions: both partners purified
T1 sequence: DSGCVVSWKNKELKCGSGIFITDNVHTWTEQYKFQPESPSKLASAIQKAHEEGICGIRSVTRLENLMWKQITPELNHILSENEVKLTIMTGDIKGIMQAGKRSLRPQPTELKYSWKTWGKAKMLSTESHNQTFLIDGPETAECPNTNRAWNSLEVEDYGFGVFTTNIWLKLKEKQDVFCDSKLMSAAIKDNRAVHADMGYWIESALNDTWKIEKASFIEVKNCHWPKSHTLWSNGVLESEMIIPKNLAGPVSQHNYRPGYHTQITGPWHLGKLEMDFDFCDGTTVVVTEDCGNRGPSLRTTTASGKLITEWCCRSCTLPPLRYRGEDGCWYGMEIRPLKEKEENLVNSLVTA

Molecule	fold relative binding (EFNB1 Fc over Gluc Fc) [1] [fold]	fold relative binding (EFNB1 Fc over Gluc Fc) [2] [fold]	fold binding over the Gluc-Fc negative control [3] [fold]
EFNB1 RBD-Fc fusion protein (from UniProt P98172 28-164)	15	50	
B1			40
